The source of these data is patent publication US20180155451A1 (published 2018).

Where a chain is given by its changes, count along the chain named. In names and notes the source's numbering stands. Where two headings read alike, the source gives them in different places. Where only a bound is given, the exact number is not on record here.

One experiment concerns the target T1, FcγRIIIa F (human, UniProt P08637 17-208).
T1 construct: extracellular domain; also called FcgRIIIa F; FcgRIIIaF; not shown: His tag attached to the C terminus
Kind of experiment: SPR (Biacore), KD.

The next experiment deals with T2, FcγRIIIa V (human, UniProt P08637 17-208).
T2 construct: extracellular domain; also called FcgRIIIa V; FcgRIIIaV; not shown: His tag attached to the C terminus
Kind of experiment: SPR (Biacore), KD.

The next experiment addresses T3, FcγRIa (human, UniProt P12314 16-292).
T3 construct: extracellular domain; also called FcgRIa; FcgRI; not shown: His tag attached to the C terminus
Kind of experiment: SPR (Biacore4000), kinetic analysis. The protocol: The variants described above were assessed for their binding to FcγR according to the method described in Reference Example 8.
Analysis of interaction between obj ective antibody and the FcγR was carried out using Biacore T100 (GE Healthcare), Biacore T200, Biacore A100, and Biacore 4000. HBS-EP+ (GE Healthcare) was used as the running buffer, and the measurement temperature was set to 25° C. Chips produced by immobilizing the antigen peptide by the amine coupling method to a Series S sensor Chip CM5 (GE Healthcare), chips produced by allowing preliminarily biotinylated antigen peptides to interact with and immobilize onto a Series S Sensor Chip SA (certified) (GE Healthcare), chips produced by immobilizing Protein L (ACTIGEN, BioVision) to Series S Sencor Chip CM5 (GE Healthcare), or chips produced by immobilizing Protein A/G (Thermo Scientific) to Series S Sencor Chip CM5 (GE Healthcare) were used. Antibodies of interest were captured onto these chips, and allowed to interact to each FcγR diluted with running buffer. To regenerate and repeatedly use the chip, the antibodies captured onto the chip were washed off by reacting 10 mM glycine-HCl, pH 1.5.
(In general: Surface plasmon resonance follows binding to a sensor surface in real time, without labels.)

In experiment [1] the target is T4, FcγRIIIa extracellular domain with C-terminal His tag (human, UniProt P08637 17-208).
T4 construct: extracellular domain; also called FcgRIIIa; CD16A
The experiment is described as follows: SPR (Biacore), ratio of KD values for FcγRIIIa. An excerpt:
(§1) First, it was considered which H chain should be introduced with Y296W. GpH7-TA52 (SEQ ID NO: 44) resulting from the introduction of the mutation Y296W into GpH7-TA7 was constructed, and expressed and prepared in combination with GpH7-B78 according to the method described in Reference Example 1. Furthermore, GpH7-TA58 (SEQ ID NO: 45) resulting from the introduction of Y296W into GpH7-B78 was constructed, and expressed and prepared in combination with GpH7-TA22 according to the method described in Reference Example 1. To assess the effects of combinations with Y296W, the prepared antibodies were compared for the FcγRIIIa-binding activity according to the method described in Reference Example 2 (Table 16).
(§2) Analysis of interaction between objective antibody and the FcγR was carried out using Biacore T100 (GE Healthcare). HBS-EP+ (GE Healthcare) was used as the running buffer, and the measurement temperature was set to 25° C. Chips produced by immobilizing the antigen peptide by the amine coupling method to a Series S Sencor Chip CM5 (GE Healthcare), or alternatively, chips produced by allowing preliminarily biotinylated antigen peptides to interact with and immobilize onto a Series S Sensor Chip SA (certified) (GE Healthcare) were used. Antibodies of interest were captured onto an antigen peptide-immobilized chip, and allowed to interact to each FcγR diluted with running buffer. To regenerate and repeatedly use the chip, the antibodies captured on the chip were washed off by reacting 10 mM glycine-HCl, pH 1.5.

Experiment [2] deals with T4, FcγRIIIa extracellular domain with …. Kind of experiment: SPR (Biacore), antibody captured, FcγRIIIa as analyte, 1:1 Langmuir kinetic fit.
Description: as §1, §2
(§3) The FcγR-binding activity of each antibody was assessed primarily using as an indicator the FcγR-binding activity and dissociation constant for FcγR.

For experiment [3] the target is unchanged. Kind of experiment: SPR (Biacore), ratio of KD values for FcγRIIIa. As to the method: as §2
The source holds these as a separate data set.

The target is the same in experiment [4]. The experiment is described as follows: SPR (Biacore), antibody captured, FcγRIIIa as analyte, 1:1 Langmuir kinetic fit. The protocol: as §2, §3
The source holds these as a separate data set.

The target is the same in experiment [5]. The description is as above. In outline:
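Biacore T100 at 25° C in HBS-EP+; antibodies captured on antigen-peptide chips (amine-coupled CM5 or biotinylated peptide on SA), with FcγR in running buffer flowed over.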
The source holds these as a separate data set.

The target is the same in experiment [6]. Kind of experiment: SPR (Biacore), ratio of KD values for FcγRIIIa. This is another data set of the same source.
Experiment [7] addresses T5, FcγRIIIa (human, UniProt P08637 17-208).
T5 construct: extracellular domain; The protein is soluble, His-tagged, and was expressed in FreeStyle293 cells; also called FcgRIIIa; CD16A; not shown: His tag attached to the C terminus
The experiment is described as follows: SPR (Biacore); KD of GpH7-TA7/GpH7-B78/GpL16-k0 for FcγRIIIa divided by the KD of this antibody. The protocol:
(§4) Then, K334G was also assessed in the same manner. GpH7-TA40 (SEQ ID NO: 47) resulting from the introduction of K334G into GpH7-TA7 was constructed, and expressed and prepared in combination with GpH7-B78 according to the method described in Reference Example 1. Furthermore, GpH7-TA50 (SEQ ID NO: 48) resulting from the introduction of K334G into GpH7-B78 was constructed, and expressed and prepared in combination with GpH7-TA7 according to the method described in Reference Example 1. To assess the effect of combinations with K334G, the prepared antibodies were compared for the FcγRIIIa binding according to the method described in Reference Example 2 (Table 18).
as §2, with “To regenerate and repeatedly use the chip, the antibodies captured on the chip were washed off by reacting 10 mM glycine-HCl, pH 1.5.” left out

Experiment [8] addresses T5, FcγRIIIa. The experiment is described as follows: SPR (Biacore T100); antibody captured on an antigen peptide chip, FcγRIIIa as analyte; 1:1 Langmuir kinetic fit. The protocol:
as §4, §2

The target of experiment [9] is T4, FcγRIIIa extracellular domain with …. The experiment is described as follows: SPR (Biacore), ratio of KD values for FcγRIIIa.
Description: (§5) Then, GpH7-TA54 (SEQ ID NO: 46) resulting from the introduction of Y296W into GpH7-TA22 was constructed, and expressed and prepared in combination with GpH7-B78 according to the method described in Reference Example 1. Furthermore, GpH7-TA58 (SEQ ID NO: 45) resulting from the introduction of Y296W into GpH7-B78 was constructed, and expressed and prepared in combination with GpH7-TA22 according to the method described in Reference Example 1. To assess the effect of combination with Y296W, the prepared antibodies were compared for the FcγRIIIa-binding activity according to the method described in Reference Example 2 (Table 17).
as §2
The source holds these as a separate data set.

The target is the same in experiment [10]. The experiment is described as follows: SPR (Biacore), antibody captured, FcγRIIIa as analyte, 1:1 Langmuir kinetic fit.
Description: as §5, §2, §3
This is another data set of the same source.

T5 sequence (P08637 17-208): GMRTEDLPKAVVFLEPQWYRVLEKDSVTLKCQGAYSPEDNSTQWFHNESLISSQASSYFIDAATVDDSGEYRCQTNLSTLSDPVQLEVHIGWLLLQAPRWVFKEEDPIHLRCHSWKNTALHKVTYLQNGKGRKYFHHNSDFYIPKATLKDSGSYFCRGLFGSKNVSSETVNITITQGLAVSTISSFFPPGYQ
T4 sequence (P08637 17-208): as above
T1 sequence (P08637 17-208): as above
T3 sequence (P12314 16-292): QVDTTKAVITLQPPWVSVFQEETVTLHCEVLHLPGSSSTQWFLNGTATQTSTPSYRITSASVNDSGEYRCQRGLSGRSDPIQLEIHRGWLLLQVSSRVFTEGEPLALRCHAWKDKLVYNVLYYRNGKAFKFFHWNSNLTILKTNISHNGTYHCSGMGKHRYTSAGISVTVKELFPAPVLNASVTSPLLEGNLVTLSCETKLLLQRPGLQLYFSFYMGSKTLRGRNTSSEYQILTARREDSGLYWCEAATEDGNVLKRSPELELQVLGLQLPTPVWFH
T2 sequence (P08637 17-208 F176V limits assumed): as the sequence (P08637 17-208) above, with F160V counted along it

B1: H240-Kn192/H240-Hl204/L73-k0 (antibody, human IgG1, kappa)
heavy 1: QDQLVQSGAEVKKPGASVKVSCKASGFNIKDTYIQWVRQAPGQGLEWMGRIDPLRKQTKYREKFEGRVTITADTSTNTAYMELSSLRSEDTAVYYCVRSGREFDYWGQGTLVTVSSASTKGPSVFPLAPSSKSTSGGTAALGCLVKDYFPEPVTVSWNSGALTSGVHTFPAVLQSSGLYSLSSVVTVPSSSLGTQTYICNVNHKPSNTKVDKKVEPKSCDKTHTCPPCPAPEYNWGPMVFLFPPKPKDTLMISRTPEVTCVVVDVSDEDPEVKFNWYVDGVEVHNAKTKPREKQYNATYRVVSVLTVLHQDWLNGKEYKCKVSNKDLPAPIEKTISKAKGQPREPQVCTLPPSRDELTKNQVSLWCLVKGFYPSDIAVEWESNGQPENNYKTTPPVLDSDGSFFLYSKLTVDKSRWQQGNVFSCSVMHEALHNHYTQKSLSLSP
heavy 2: QDQLVQSGAEVKKPGASVKVSCKASGFNIKDTYIQWVRQAPGQGLEWMGRIDPLRKQTKYREKFEGRVTITADTSTNTAYMELSSLRSEDTAVYYCVRSGREFDYWGQGTLVTVSSASTKGPSVFPLAPSSKSTSGGTAALGCLVKDYFPEPVTVSWNSGALTSGVHTFPAVLQSSGLYSLSSVVTVPSSSLGTQTYICNVNHKPSNTKVDKKVEPKSCDKTHTCPPCPAPELLTGPSVFLFPPKPKDTLMISRTPEVTCVVVDVSHEEPEVKFNWYVDGVEVHNAKTKPREEQYNSTYRVVSVLTVLHQDWLNGKEYKCKVSNDALPKPEEETISKAKGQPREPQVYTLPPSRCELTKNQVSLSCAVKGFYPSDIAVEWESNGQPENNYKTTPPVLDSDGSFFLVSKLTVDKSRWQQGNVFSCSVMHEALHNHYTQKSLSLSP
light: DIQMTQSPSSLSASVGDRVTITCRASQDIHKYIAWYQQKPGQAPRLLIQYTSTLQPGVPSRFSGSGSGTDYTFTISSLQPEDIATYYCLQYEQLRTFGGGTKVEIKRTVAAPSVFIFPPSDEQLKSGTASVVCLLNNFYPREAKVQWKVDNALQSGNSQESVTEQDSKDSTYSLSSTLTLSKADYEKHKVYACEVTHQGLSSPVTKSFNRGEC
notes: Y235N/E294K in H240-Kn120; G236T/I332E in H240-Hl068
For B1, the “fold enhancement of binding against the variant before introduction of I332E and Y235N” value with FcγRIIIa F came to 2 fold; with FcγRIIIa V, 8 fold. For the same molecule, the koff with FcγRIa is under 5e-05 s⁻¹.

B2: GpH7-TA7/GpH7-B78/GpL16-k0 (antibody, human IgG1, kappa)
heavy 1: QVQLVQSGAEVKKPGASVTVSCKASGYTFTDYEMHWIRQPPGEGLEWIGAIDPKTGDTAYSESFQDRVTLTADKSTSTAYMELSSLTSEDTAVYYCTRFYSYTYWGQGTLVTVSSASTKGPSVFPLAPSSKSTSGGTAALGCLVKDYFPEPVTVSWNSGALTSGVHTFPAVLQSSGLYSLSSVVTVPSSSLGTQTYICNVNHKPSNTKVDKKVEPKSCDKTHTCPPCPAPEYLWGPSVFLFPPKPKDTLMISRTPEVTCVVVDVSHEDPEVKFNWYVDGVEVHNAKTKPREEQYNATYRVVSVLTVLHQDWLNGKEYKCKVSNKALPAPIEKTISKAKGQPREPQVYTLPPSRKELTKNQVSLTCLVKGFYPSDIAVEWESNGQPENNYKTTPPVLDSDGSFFLYSKLTVDKSRWQQGNVFSCSVMHEALHNRYTQKSLSLSP
heavy 2: B2 heavy 1 with Y232L, W234G, S237D, A296S, A328L, I330E, K354D, R433H, K437E
light: DIVMTQSPLSLPVTPGEPASISCQASESLVHSNRNTYLHWYLQKPGQSPQLLIYKVSNRFSGVPDRFSGSGSGTDFTLKISRVEAEDVGVYYCSQNTHVPPTFGQGTKVEIERTVAAPSVFIFPPSDEQLKSGTASVVCLLNNFYPREAKVQWKVDNALQSGNSQESVTEQDSKDSTYSLSSTLTLSKADYEKHKVYACEVTHQGLSSPVTKSFNRGEC
notes: Heterodimerized anti-glypican-3 IgG1 variant: L234Y/G236W/S298A in one H chain, S239D/A330L/I332E in the other
On to B2, for which the “KD ratio (KD of GpH7-TA7/GpH7-B78/GpL16-k0 divided by KD of the antibody)” value in [1] and in experiment [3] was 1 fold each time. In addition, the figures for the Kd in [2], in experiment [4] and in experiment [5] were 4.1 nM, 4.1 nM and 4.7 nM, respectively. Moreover, in [6], the “KD ratio 1 (KD of GpH7-G1d/GpL16-k0 divided by KD of the antibody)” value amounted to 261 fold. The “KD ratio 2 (KD of GpH7-A5/GpH7-B3/GpL16-k0 divided by KD of the antibody)” value in [6] was 347 fold.

B3: GpH7-TA40/GpH7-B78/GpL16-k0 (antibody, human IgG1, kappa)
heavy 1: B2 heavy 1 with K332G
heavy 2: B2 heavy 1 with Y232L, W234G, S237D, A296S, A328L, I330E, K354D, R433H, K437E
light: B2 light
notes: Heterodimerized anti-glypican-3 IgG1 antibody; K334G is in the same H chain as L234Y/G236W/S298A; also called TA40/B78
With B3, in the experiment with FcγRIIIa [7], the KD ratio stood at 0.5. In addition, the Kd with FcγRIIIa [8] came to 7.5 nM.

B4: GpH7-TA22/GpH7-B78/GpL16-k0 (antibody, human IgG1, kappa)
heavy 1: B2 heavy 1 with S237D
heavy 2: B2 heavy 1 with Y232L, W234G, S237D, A296S, A328L, I330E, K354D, R433H, K437E
light: B2 light
notes: Heterodimerized anti-glypican-3 IgG1 variant
On to B4, for which, in [9], the “KD ratio (KD of GpH7-TA22/GpH7-B78/GpL16-k0 divided by KD of the antibody)” value was determined as 1 fold. Moreover, the dissociation constant Kd in experiment [10] and in [4] was 1.3 nM in each case. The “KD ratio (KD of GpH7-TA7/GpH7-B78/GpL16-k0 divided by KD of the antibody)” value in experiment [3] amounted to 3.2 fold.

B5: GpH7-TA7/GpH7-TA50/GpL16-k0 (antibody, human IgG1, kappa)
heavy 1: B2 heavy 1
heavy 2: B2 heavy 1 with Y232L, W234G, S237D, A296S, A328L, I330E, K332G, K354D, R433H, K437E
light: B2 light
notes: Heterodimerized anti-glypican-3 IgG1 antibody; also called TA7/TA50
In the case of B5, the KD ratio in the experiment with FcγRIIIa [7] is 1.2. For the same molecule, in the experiment with FcγRIIIa [8], the Kd turned out to be 3.4 nM.

What is called koff is the first-order rate constant of dissociation. Lower therefore signals slow dissociation. The Kd is the constant that tells how readily two partners part at equilibrium.
